Reference: patent US20060099684A1

Molecular target: activated type I collagenase
Assay: cell-based or functional assay

IC50 of inhibition of MMP activity (quantitative radiometric 14C-collagen film assay): 7.5 nM
Substance: T2N (three N-terminal disulfide-bonded loops of human TIMP-2, C-terminal His-tag, expressed in Pichia pastoris) (from UniProt P16035 27-153)
